Experimental findings from patent US20260049140A1 (JANUX THERAPEUTICS, published 2026) are described below.

The IC50 is the point on the concentration scale where inhibition reaches its midpoint. Read a low IC50 as higher potency. The EC50 is the midpoint of the concentration-response curve.

Ends that are not written are not given here.

One experiment has as its target T1, TCE-33.
T1 construct: anti-CD3 scFv with P41S; E227D set of mutations; anti-TROP2 Fab F108A
Kind of experiment: competition ELISA, peptide titrated vs TCE binding to captured CD3.

Another experiment has as its target T2, TCE-32.
T2 construct: anti-CD3 scFv F240A; anti-TROP2 Fab F108A
The description is as above.

The next experiment addresses T3, TCE-30.
T3 construct: anti-CD3 scFv H101A; anti-TROP2 Fab F108A
The experiment is described as above.

The next experiment concerns the target T4, TCE-29.
T4 construct: anti-CD3 scFv wt; anti-TROP2 Fab F108A
The description is as above.

In a further experiment the target is T5, TCE-19.
T5 construct: anti-CD3 scFv W233A; anti-TROP2 Fab wt; also called 3091
The experiment is described as above.

The target of a further experiment is T6, TCE-15.
T6 construct: anti-CD3 scFv W112A; anti-TROP2 Fab wt; also called 3087
The description is as above.

A further experiment concerns the target T7, TCE-24.
T7 construct: anti-CD3 scFv W238A; anti-TROP2 Fab wt; also called 3096
Described as above.

The target in experiment [1] is T8, human CD3ε-biotin (human, UniProt P07766 23-126, limits assumed, biotinylated (site not stated)).
T8 construct: also called CD3E-bio; CD3E-biotin
Description: ELISA, biotinylated CD3ε on neutravidin plates.

The target in experiment [2] is T8, human CD3ε-biotin. Kind of experiment: BLI (Octet), summary table. Background: In BLI a coated tip is dipped into the sample, and binding shifts an interference pattern.

For YLCGPDTDETLACY (cysteine pairing not given here; also: biotinylated, site not given here) [Peptide-13], the IC50 with TCE-33, in the experiment with TCE-32, with TCE-30 and in the experiment with TCE-29 was above 100 µM throughout.

With GSACLGPEWEVCPY (cysteine pairing not given here; also: biotinylated when captured in ELISA, also called 1596) [Peptide-11], the IC50 with TCE-19, in the experiment with TCE-15 and with TCE-24 was above 100 µM in each case.

B1: TCE-26 (anti-CD3 scFv F240A; anti-TROP2 HC wt) (bispecific antibody)
light: DIQLTQSPSSLSASVGDRVSITCKASQDVSIAVAWYQQKPGKAPKLLIYSASYRYTGVPDRFSGSGSGTDFTLTISSLQPEDFAVYYCQQHYITPLTFGAGTKVEIKRTVAAPSVFIFPPSDEQLKSGTASVVCLLNNFYPREAKVQWKVDNALQSGNSQESVTEQDSKDSTYSLSSTLTLSKADYEKHKVYACEVTHQGLSSPVTKSFNRGEC
heavy: not shown
notes: scFv-Fab; the entry already carries the mutation; also called 3098
The molecule B1 showed an EC50 in the experiment with human CD3ε-biotin [1] of 0.0006 µM. In addition, the “CD3 t1/2” value with human CD3ε-biotin [2] came out at 39 s.
